Measurements taken from the DeepSol protein solubility set.

Experiment: soluble on expression in E. coli; label from the status in PepcDB or PDB records

| Sequence | soluble on expression in E. coli |
| --- | --- |
| MNWKQEFSRWLSYAELDAELKEQLENMKQDEKKIEDSFYKNLEFGTGGMRGELGAGTNRLNVYTVRKATQGLAKFIEKLGEEAKKRGVVVAYDSRHKSPEFAMEVAATLGAHGITTYVFESLRPTPVLSFAVRHLHTVSGIVLTASHNPPEYNGYKVYGEDGGQLPPKEADELISYVNAVEDELTVEVADVEQLKADGLLHMIGQEVDDAYAAELNNVIINKEMVQKVGKDLKIVFTPLHGTSNLSVRRGLAEVGFTDVTVVKEQELPDPNFSTVKSPNPEEHAAFEYAIRDGEKVGADVLIATDPDADRLGVAVRNHDGEFQVLTGNQTGALMLDYLLSQKKENGTLPENGVVLKTIVTSEIGRTIAKAYGLDTVDTLTGFKFIGEKIKQYEESGQYEFQFGYEESYGYLIRPFCRDKDAVQSVLFACEVAAYYKSQGKTLYDGLLEVFEKYGFFREDLVSLTLKGKDGAEQIQEMMATFRENPPKEVAGLTVVAVEDYKASIITSLQDGHKEEIHLPKSNVLKYQLEDGSWFCLRPSGTEPKIKFYFGVQDNSLQNSEQKLLTIKEDIMNRL | not soluble |
| MNWLDICSLDEINPLGSRVVAGPKGDIAIFRAADDQVFALDDRCPHKGGPLSQGLIYGKRVACPLHNWQIELESGEAVAPDQGCAHRHPVRVENGRVLLGLDSVALCA | not soluble |
| MNYELMEPAKQARFCVIWLHGLGADGHDFVDIVNYFDVSLDEIRFIFPHADIIPVTINMGMQMRAWYDIKSLDANSLNRVVDVEGINSSIAKVNKLIDSQVNQGIASENIILAGFSQGGIIATYTAITSQRKLGGIMALSTYLPAWDNFKGKITSINKGLPILVCHGTDDQVLPEVLGHDLSDKLKVSGFANEYKHYVGMQHSVCMEEIKDISNFIAKTFKI | not soluble |
| MNYHTFCPISCVSWLYQKIEDSFFLVIGTKTCGYFLQNAMGVMIFAEPRYAMAELEEGDISAQLKDYEELKRLCLQIKRDRNPSVIVWIGTCTTEIIKMDLEGLAPQLEAEIGIPIVTARANGLDYAFTQGEDTVLASMAHKCPTSAQVQGEDKELEHHHHHH | soluble |
| MNYIRKLYKQDYRGFESLPHRRENVIEKYSVKSQRPLLKKYLVEDFGGMCIYCGWNCKRYDAASFHIEHIKSQIDNESLIDDYSNLALSCPICNTTKNKKALPSDLDPLGEDYKNLFYRNNRGAIVTNNDIEDRKKALSQQYIKILGLSKELYKLDYVQTSLNIIKRRLRQSDKINLELINSITEILDFIDDNYTRQSNLTLLEHHHHHH | not soluble |
| MNYKSCFDIIGPIMIGPSSSHTAGALAIGLAARKLFGGTPEKIVIKYYESFADTHKGHGTDFAIIGGILGLAADDANVTQSIELAEEQGIEIQFLEMSEESPVKHANTACVTLSDATHEIHLTGISVGGGTIEVKYIELDGFNVQLHGPLPILLVINQEEQAMQAFKDTLQKNNIQVNAVSRYVEGNQILFIFDLDSAPISSVKEQLFSLDDTSKIILL | not soluble |
| MNYLQYYPTDVINGEGTRCTLFVSGCTHACKGCYNQKSWSFSAGVLFDDVMEQQIINDLKDTRIKRQGLTLSGGDPLHPLNVETLLPFVQRVKRECPDKDIWVWTGYKLDELDKQQRAMLPYIDVLIDGKFIQEQADPSLVWRGSANQIIHRFKLLEHHHHHH | soluble |
| MNYSPKQGVRSHGLPHDPFKSSTVPRPIGWISTVSKDGKDNLAPYSQYQNLTWDPPMVMFAANQSVLGDHERKDTVKNAEETGWFVWNMATYDLREAVNLSSKALPPEEDEFEYAGVTKEACIEAPGYRVKESPVHFECEYVQTIRIPTGDPVSTVDIVIGRVAQVHIDDKVILDNGKLDIKSIKPIARLGYYDYTVVNEIFEMKAPAASKEELAGLEGRNFDNQSDEKR | not soluble |
| MPAIEVIRSAKRTKTVQARIVDGQIQVRIPARMSKAEEEKAVGEIVAKLKRRTQSAVSSDADLIERAHKLNKTVLEGRARVESIRWVSNQKGRWGSCTVATAEIRISDRLKHVPDYVLDAVLVHELTHTFIAGHSAEFWEWADKTPLAERAKGYLEAYQRWGLEHHHHHH | soluble |
| MPAISMFYGIVIYLYFYDDERHKIPHIHAKYQGEDASVSIANGEILAGDIPLSKLRLVQAWIEIHRDALMADWALAVNGQPPFAIEPLRLEHHHHHH | not soluble |
| MPAIVCQSALEAVSLIRSGETLWTHSMGATPKVLLDALAKHALTLDNITLLQLHTEGAESLSHPSLLGHLRHRCFFGGVPTRPLLQSGDADYVPIFLSEVPKLFRSGEQKIDTAIIQVSPPDKHGMCSLGISVEATLAACQVAGKIIAHINPQMPRTHGDGFIHIDRFAAVYEQSASLPIHSFATGDAVSLAIGQHVAELVRDGDCLQMGIGAIPDAVLSCLTGHKDLGVHTELFSDGILQLVEKGVINNTKKRFYPGKLVTGFALGSQKLYDYVDDNPAVIFMDIEQVNDTSIIRKNPNVMAINSALQVDLTGQVCADSIGTKIYSGVGGQMDFIRGAGLSEGGRSVIALPSTAAGGRISRIASVLSPGAGVVTTRAHVHYIVTEYGAANLKGRSLRERAQALINIAHPDFREQLSRDAFEVWGLNLLEHHHHHH | soluble |
| MPAKSSSRTSATSSRRTILRLKVIPWERIISPFPSERGGSMSSLGIDIGGANLKVASKDGWEIIYFPMWREAERLEGKLREIAEKYSTAKAGVVMTAELADFFKSRAEGVEFIAKACKKAFEDVRFLDVEGNLKSDIDNPENFAASNWVASCRFLLEEAYRNFLFVDMGSTTTDIIPVTSKIEAAKTDFERLKRGELIYFGVLRTPVFYVLKEFEGAPLCPEFFAITADVFVTTGDIKEEDYSCDTPDGKGRSREECMRRLARTVCSDLEELGEEKVKELALEAKWAMIDRLSEVIEHKSKIYGLKTVFACGIGEFLIAEACEEAGAECRLISELYGDYSKLFPAYAMLKLVEQHLEHHHHHH | not soluble |
| MPANELFGDSDPEGDEIFERVRKVQPKSINVTENQKVDPMRKVKIELQAVLVAEKIPISTEEIRRRLLDSYGACPDPKRYNCSTLDDLLQACSESIVHTFGRDGIHRYGPRTTEANQDIIEMVQQQSSSKRPARSFLGSGATNNLSTHGSSFRAFRGPYASEEIAKSRGTPEQFKARHKLGPAKTISRVKNLAEVLKEYADEIGVSHPDEPNRKIVTLAALANKFKQLYCLPAWGKNISESELYIQLNVPPFNEYLHFWRLSEKGDIFVDCIDRDNADPTQKSEQNPSADVSIQSESFGGKSSASAFEQSVVSAPSTIRDQTSDSFDGFNSFEVPPENGSKDSKIFNSNQESIDDYPGNAISRDRTADMTDIALRFGTVSVASQQCPVSSSLVPQNGILRQSRAQEDDNNTSILTIQSSRRNHSVLRHRTIKPRNPTQNLAEVVKTHGSIPYEALSDCDKIIVDLGKNIFKVYATQPGEMMVRLCDPHVDTTTLPLLENNLRDPVESDLRWMTLGNSHIKKQSVKVVKPAMFIAPRGFLLILKDEEREEMDVEKVATMGNILRAVMVAPIVELQRETVRTGSAAVYVYRQGAEVRYYRVLIVGQAKQDGEVLVLLADVDDQYFVDVHLSHLFPIPEEASFKHFPSNVVFATLHGVLGLTLSEQDVMFENIDNDDTKRFVGGYFHGNDDRILNIDMVWKNERGQFEWLSQIVKRRGAVTSSDANIIHFPHSALDVIKSVGPDCSVCFVDYSVRDESATSSLMESTRIVHDSRESMTTTYVGEMPSPIIEEIDATSSFDPKLLNLHSLFDKLIEEQNVTMIVGMFQFVRSLKDLFGDNNEWERLLTYMLTTGKNNNIRL | not soluble |
| MPAYHSKFDTELKVLPLGNTNMGKLPIRTNFKGPAPQTNQDDIIDEALTYFKPNIFFREFEIKGPADRTMIYLIFYITECLRKLQKSPNKIAGQKDLHALALSHLLPIPGENGFPLNSMYKAPQSKPDEDEMRAYLQQIRQEIGARLCDLAFPDPQDRPSKWWLCFARRRFMDKGLVGQGVNL | soluble |
| MPCDFPGCGRIFSNRQYLNHHKKYQHIHQKSFSCPEPACGKSFNFKKHLKEHMKLHSDTRDYICEF | soluble |
| MPCFFFILDTSGSMSTRAHPQFSFFDLAKNFIENFIKQRTKGDNRMMVGRETDKYFLMTTQARYPKNVKVACEKLGAVVIEEIKKLHLPYGSCQLHHAILEAFKVLHVSRVQTGIDGVGIGRLISNTEPVTMILLTDGSGVAGIPIDFRLFFDPPFLGSEMTRDAFRWDQKFYTVVFRIPSTPYRPTISQLTAIDIDMPVIERLCARTGGRSFSIVSPRQIQTTIDYLLAMGNQYKIGVRFECLPAIPAPITSDEVNLVKMKFKKVIDKRPVTNIISRLNPQARPVTCHWPIPESFFPMRTMDQLPQRTSHPVILCAPIALPLHIRPELPVDKLELEPGGISDIIMEILQGRKDMTVWTYMEGSSNGPTAPFGCLRMNTLGTGITLILMPFNFPMLYSLVEEIVKEPFLNKSQVWRSKLESYFHTVPFYYNTQIRVCLDKFDVKVDYSSSMSMFYPGQLLSNLNRFKAKAREELDQMAIASKLNDSKTLKIVNPSIRIERITSRSTIIGLGNSEVDIEDDSLEGYESTPIYAGDFKIPLYPPSITDAQLDSAYRTPYSSPIEDLTSKLNRIQANIELMFDPNKITLLDMAKLGTKARFNTLGLCFFHPIFLANSTSRKFYIQKFETLQVMDSAVVDNNSPSTSGQPKRFGGEGRQGGGPPKRRRGPLGIDAYDQYRIRRSMRGSSAGSDISDISSSLGTFDQDSDMTTPGTSGMNTPISEFDDLQLQEMDSDDQLMKNLDEVQALRKKEEAQVQPKIKKPPPVPPASILSSQEILTRKIRIGSIIRKPANHCAFEEIMTLVAGITQEACSQLIKYALRESQRFKLKQLTERLENRLKTV | not soluble |
| MPCRLRKITVYETKSRFYIIGCDSTGSRYNVLKIDRIDPKALITGEPEYDYTREEILELLATISDGSSVVYRSSSKKGTKSGLIERATNAFGILGCVRFVEGYYLIIITRAHAVATLGYHPVYKIVEVAMIPIAMDGVSTSSEEQKYVKLFQSVDLSTDFYFSYSYDMSRTFQENSLRSDWNNHGQRRLEADERFVWNSFLLEPLRKNLISERWFVEIVHGYVRQEYIFLPIGRISLTIIGRRSTKYAGTRFLKRGANPTGNVANYVETEQIVWDMASSGNVADGRFSSFVQMRGSVPMRWSQDPSTRGVVGKPLILIDNHEPHAQTAASHFRDVRNKYGNPIVIMNLIKRNEKRRHEGVLHTQFLKNIEYLNQFLPNEEKLCYISFDVARCNKAANSMPSINVLNVMEDLSMKSILKNGWFQSFPLSEALKIRPREAFATLDAHHSKDGRFMIQHGICRTNCVDCLDRTNVAQFVIAKVALGCQLCAMGILDEPNLTLQSEVCRLLEDMFDEHGDTMALQYAGSQLVHSIKTYKKTAAFQERRRDVFQTLSRYYSNTFNDWDKQMAINLFLGVFRPRITTMKNLWDLTSDYNLHFPYSLKINTDYCAWTLSEKELEDLVFLDYDESENSDGYVEIRSIDVDGRRGSEGSEYRTLLFSSHEDFRDYHRTYEFTSLDDRIGRLFSIENRAIQVDGINEEPTTHAQFLKLWKTTETKEKDQKKPNKKDKEEKESDDEDDDEEISTQWSDVVEAQQEWYDLVNAPGNVTTTLQKSPTKRESTPPRNTSRAKRSLLSTGLQFAKDIYHLDHLKTQPEERRYYEKYAITAFKCNVRDWEKVKPTLLSEFKITSEVEPRRPTFFTTDDCYRTESPEVSGNSARFYIKSSHPLTTECSAQDYGFFSKYMQAT | not soluble |
| MPCRLTRLFGIEFPIIQAPMAGVQGSALAIAVSEAGGLGSLPCAMLSLEALEAELTAIRSQTAKPINVNFFCHREPVAQAAKQAAWLEQLAPYFAEFNLDPNAQPAGAQRTPYSKAQAEVLAKFKPEVVSFHFGLPDEELLLEIKSWGSKVISTATTVEEALWLEARGADAIIAQGLEAGGHRGHFLSEDLTEQLGTFSLLPQIIAAVEIPVIAAGGIVDATTVRAAMTMGASAVQVGTAYLLCPECNTSAIHREALQSDAAQHTALTNLFSGRPARGIVNRFMAEMGPMNEAVPDFPLASSAVAGLRTAAERLGFWDFSPLWCGQNASGCRAIPAADLTRSFVLSLPSSCVEPQEKSGAAALEHHHHHH | not soluble |
